Target: Nedd4 on the surface of virus-infected MDCK cells (canine (MDCK cells))
Assay: cell-based or functional assay

Substance	inhibition of viral replication (ADCC mediated, in vitro) [% inhibition]
Human Nedd4 antibody Ab101AP	80
Human Nedd4 antibody Ab27979	80

Source: patent publication US8535684
